According to publication doi:10.1101/383430 (bioRxiv, 2018):

Biological target: T1, FAP45 (flagellar-associated protein 45) (Chlamydomonas (endogenous in axonemes), UniProt A8I9E8 1-501)
T1 sequence (looked up): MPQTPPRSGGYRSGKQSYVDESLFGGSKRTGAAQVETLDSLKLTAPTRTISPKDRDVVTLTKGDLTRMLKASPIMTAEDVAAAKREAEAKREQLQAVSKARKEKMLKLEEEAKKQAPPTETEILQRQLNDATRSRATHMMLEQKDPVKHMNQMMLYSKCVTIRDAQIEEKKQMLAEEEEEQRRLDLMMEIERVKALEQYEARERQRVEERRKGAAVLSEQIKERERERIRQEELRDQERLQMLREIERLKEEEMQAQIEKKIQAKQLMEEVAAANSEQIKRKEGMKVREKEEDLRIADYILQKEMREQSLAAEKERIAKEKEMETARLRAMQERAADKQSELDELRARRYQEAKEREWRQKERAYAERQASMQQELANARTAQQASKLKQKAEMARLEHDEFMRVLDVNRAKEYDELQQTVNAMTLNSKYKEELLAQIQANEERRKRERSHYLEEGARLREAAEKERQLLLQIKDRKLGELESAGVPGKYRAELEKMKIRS
Assay: cross-linking

B1: FAP52 (flagellar-associated protein 52) (natural protein, Chlamydomonas (endogenous in axonemes), UniProt A8ILK1 1-615, looked up)
chain: MAEPLVLNSVIGFGGAIENGLIAHPDGRTIIYPLGSTIVLRDRADPRSQEFLQGHSDKVSCLALSRSGRYLASGQITYMGFTADIIIWDLESKQLIHRMALHKVKVQALDFSCDERFLASLGGQDDNALVLWDVASGNAICGSPCNTNFTNCVKFFNNSPDKLITAGNFNMNVWTYDAGNNKLRPTDATLGTLKRVFKSVVVDANDEYAYCGTTTGDVLQIALERVLFKNTGPAKGNVQMGVTATCEVPTGDILVGGGDGSLQLLRKMPALAGTKVEGAITSIALADMNARGFTFFVGTAMCNIYKPATSRLKEELVQTAHNDKINGMAFPNEYSEVFATCGTGFIRLWHLTTCRELLRIAVPNLECFCIAFTTDGSAILSGWSDGKIRAFGPQSGKIIFTINDAHQKAVTAIASTADSSRILSGGEEGMVRVWRIGRTSQTLEASMKDHKGPVNCIRIKGSGDECVSASSDGSCILWDLHTFKRRTSLFANTFFKSVVYHPDESQLVTAGTDRKVTYWDAYDGNAIRIIDGSDLDEVNALAVDRDGEALVSGGGDKLVKLWGYDEGHCYFVGVAHSGAITAVGVTPDKQRIVSVGTEGGIFIWDYQRPQTLADI
B1 was tested, and the “stoichiometry N” value was ~1.
